Test results reported in patent publication US20220332804A1 (CSL INNOVATION, published 2022).

What was measured:
Test in all cases: SPR, KD relative to WT C2;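 further: biacore SPR at 37 °C, anti-C2 mAbs captured on anti-human IgG chips with alanine or serine point mutants of C2 as analyte, KD from 1:1 fit compared with wild-type C2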
[1] = molecular target: T1, human C2 W420A (human, UniProt P06681 21-752)
T1 sequence: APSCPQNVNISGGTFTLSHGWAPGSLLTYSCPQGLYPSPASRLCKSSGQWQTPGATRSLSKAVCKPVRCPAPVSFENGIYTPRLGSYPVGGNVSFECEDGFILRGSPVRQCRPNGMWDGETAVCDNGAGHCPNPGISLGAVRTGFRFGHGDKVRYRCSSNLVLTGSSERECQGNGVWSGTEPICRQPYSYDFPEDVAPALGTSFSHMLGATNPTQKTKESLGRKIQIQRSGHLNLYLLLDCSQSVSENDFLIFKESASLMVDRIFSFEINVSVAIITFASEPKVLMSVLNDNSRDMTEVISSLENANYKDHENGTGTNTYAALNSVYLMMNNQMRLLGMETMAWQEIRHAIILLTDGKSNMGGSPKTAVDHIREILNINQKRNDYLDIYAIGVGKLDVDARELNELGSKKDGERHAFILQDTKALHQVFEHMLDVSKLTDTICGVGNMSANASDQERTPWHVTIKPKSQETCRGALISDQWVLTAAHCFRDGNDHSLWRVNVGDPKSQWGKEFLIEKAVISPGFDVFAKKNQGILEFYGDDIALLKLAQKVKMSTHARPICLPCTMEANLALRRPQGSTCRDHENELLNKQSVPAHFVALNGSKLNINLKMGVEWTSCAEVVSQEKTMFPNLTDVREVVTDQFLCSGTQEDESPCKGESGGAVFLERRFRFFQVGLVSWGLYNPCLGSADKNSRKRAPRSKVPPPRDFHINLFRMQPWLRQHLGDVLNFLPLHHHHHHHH

[2] = molecular target: T2, human C2 F270A (human, UniProt P06681 21-752)
T2 sequence: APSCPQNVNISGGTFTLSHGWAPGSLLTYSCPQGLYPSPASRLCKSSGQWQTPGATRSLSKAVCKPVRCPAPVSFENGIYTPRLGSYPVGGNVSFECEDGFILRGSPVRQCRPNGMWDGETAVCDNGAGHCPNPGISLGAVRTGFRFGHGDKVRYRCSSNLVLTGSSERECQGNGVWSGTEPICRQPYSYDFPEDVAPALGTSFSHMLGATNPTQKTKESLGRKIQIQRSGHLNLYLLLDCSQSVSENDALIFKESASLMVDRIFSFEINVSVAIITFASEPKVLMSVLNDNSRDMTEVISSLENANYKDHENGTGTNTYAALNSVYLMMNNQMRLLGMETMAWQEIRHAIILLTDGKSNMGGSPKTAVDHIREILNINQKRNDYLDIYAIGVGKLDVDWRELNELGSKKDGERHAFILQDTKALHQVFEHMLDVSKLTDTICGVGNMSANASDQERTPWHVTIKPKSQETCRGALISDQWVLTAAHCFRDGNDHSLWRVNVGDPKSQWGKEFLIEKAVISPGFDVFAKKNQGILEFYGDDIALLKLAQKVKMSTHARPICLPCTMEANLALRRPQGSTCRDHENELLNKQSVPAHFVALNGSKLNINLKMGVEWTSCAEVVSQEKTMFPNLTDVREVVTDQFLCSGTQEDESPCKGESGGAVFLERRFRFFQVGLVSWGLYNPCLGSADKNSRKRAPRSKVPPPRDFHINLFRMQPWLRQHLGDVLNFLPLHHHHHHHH

[3] = molecular target: T3, human C2 H446A (human, UniProt P06681 21-752)
T3 sequence: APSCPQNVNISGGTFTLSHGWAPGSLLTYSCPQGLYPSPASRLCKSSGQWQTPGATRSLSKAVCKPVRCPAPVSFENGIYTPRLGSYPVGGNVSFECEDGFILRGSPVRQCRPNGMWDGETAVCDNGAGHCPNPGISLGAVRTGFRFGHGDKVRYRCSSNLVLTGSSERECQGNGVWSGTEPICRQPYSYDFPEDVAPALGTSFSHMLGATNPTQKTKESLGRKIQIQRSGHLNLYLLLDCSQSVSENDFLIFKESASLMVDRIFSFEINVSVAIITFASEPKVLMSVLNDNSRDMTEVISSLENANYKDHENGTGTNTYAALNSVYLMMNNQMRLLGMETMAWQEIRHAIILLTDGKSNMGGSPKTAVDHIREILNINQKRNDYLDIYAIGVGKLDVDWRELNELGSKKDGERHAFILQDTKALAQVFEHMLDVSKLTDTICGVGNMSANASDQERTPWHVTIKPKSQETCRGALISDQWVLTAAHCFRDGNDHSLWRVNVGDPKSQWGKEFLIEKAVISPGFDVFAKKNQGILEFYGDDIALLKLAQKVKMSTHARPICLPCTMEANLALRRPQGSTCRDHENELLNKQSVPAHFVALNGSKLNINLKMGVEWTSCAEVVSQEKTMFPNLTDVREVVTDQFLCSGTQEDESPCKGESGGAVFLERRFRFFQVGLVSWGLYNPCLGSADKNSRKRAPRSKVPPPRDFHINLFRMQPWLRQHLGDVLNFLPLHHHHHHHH

[4] = molecular target: T4, human C2 K274A (human, UniProt P06681 21-752)
T4 sequence: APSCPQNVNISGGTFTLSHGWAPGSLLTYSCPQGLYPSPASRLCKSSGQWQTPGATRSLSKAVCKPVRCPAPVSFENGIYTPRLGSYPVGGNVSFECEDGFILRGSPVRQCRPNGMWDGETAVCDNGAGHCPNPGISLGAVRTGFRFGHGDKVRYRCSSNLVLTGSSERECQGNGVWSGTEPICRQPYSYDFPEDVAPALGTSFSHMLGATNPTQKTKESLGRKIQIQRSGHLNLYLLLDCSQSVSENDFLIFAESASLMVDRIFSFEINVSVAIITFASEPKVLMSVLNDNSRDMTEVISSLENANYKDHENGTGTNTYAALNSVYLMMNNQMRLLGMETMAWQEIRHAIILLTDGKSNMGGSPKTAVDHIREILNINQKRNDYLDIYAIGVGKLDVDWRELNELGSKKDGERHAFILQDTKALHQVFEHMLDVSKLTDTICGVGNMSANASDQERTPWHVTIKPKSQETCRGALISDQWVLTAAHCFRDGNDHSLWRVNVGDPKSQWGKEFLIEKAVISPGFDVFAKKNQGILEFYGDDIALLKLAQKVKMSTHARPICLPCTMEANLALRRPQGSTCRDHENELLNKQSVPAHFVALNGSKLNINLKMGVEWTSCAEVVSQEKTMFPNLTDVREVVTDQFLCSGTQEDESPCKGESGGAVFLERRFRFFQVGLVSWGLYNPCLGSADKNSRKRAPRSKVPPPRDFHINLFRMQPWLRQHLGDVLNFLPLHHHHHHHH

B1: RF16-242 (antibody, human IgG4 S228P, lambda, V domains shown)
VH: EVQLLQSGAEVKKPGESLKISCKGSGYSFTSYWIGWVRQMPGKGLEWMGIIYPGDSDTRYSPSFQGQVTISADKSISTAYLQWSSLKASDTAMYYCARRGHYGDYFDYWGQGTLVTVSS
VL: SYELTQPPSVSVSPGQTARITCSGDALPKKYAYWYHQKSGQAPVLVIYEDRRRPSEIPERFSGSSSGTMATLTITGAQVEDEGVYFCYSRDRAGNQRVFGGGTQLTVLG
notes: pH-dependent anti-C2 antibody from a phage display library
[1]
  Fold diff: 2 fold
[2]
  Fold diff: 15 fold
[3]
  Fold diff: 2 fold
[4]
  Fold diff: 12 fold
